Results from PMC4351158 (Structure (London, England : 1993), 2015).

Test system: periplasmic domain of RseA
Assay: Cleavage of 35S-labeled RseA periplasmic domain by DegS variants
Format: biochemical, E. coli
[1] = H198P background, compared to H198P

B1: P229A: DegS variant P229A (protein)
chain: RSLNPLSTPQFDSTDETPASYNLAVRRAAPAVVNVYNRGLNTNSHNQLEIRTLGSGVIMDQRGYIITNKHVINDADQIIVALQDGRVFEALLVGSDSLTDLAVLKINATGGLPTIPINARRVPHIGDVVLAIGNPYNLGQTITQGIISATGRIGLNPTGRQNFLQTDASINHGNSGGALVNSLGELMGINTLSFDKSNDGETAEGIGFAIPFQLATKIMDKLIRDGRVIRGYIGIGGREIAPLHAQGGGIDQLQGIVVNEVSPDGPAANAGIQVNDLIISVDNKPAISALETMDQVAEIRPGSVIPVVVMRDDKQLTLQVTIQEYPATN
modifications: left off: His6, N-terminal, state not stated
YYF-stimulated cleavage activity, in words (WT background, compared to wild-type DegS): more active than wild-type DegS

B2: E230A: DegS variant E230A (protein)
chain: RSLNPLSTPQFDSTDETPASYNLAVRRAAPAVVNVYNRGLNTNSHNQLEIRTLGSGVIMDQRGYIITNKHVINDADQIIVALQDGRVFEALLVGSDSLTDLAVLKINATGGLPTIPINARRVPHIGDVVLAIGNPYNLGQTITQGIISATGRIGLNPTGRQNFLQTDASINHGNSGGALVNSLGELMGINTLSFDKSNDGETPAGIGFAIPFQLATKIMDKLIRDGRVIRGYIGIGGREIAPLHAQGGGIDQLQGIVVNEVSPDGPAANAGIQVNDLIISVDNKPAISALETMDQVAEIRPGSVIPVVVMRDDKQLTLQVTIQEYPATN
modifications: left off: His6, N-terminal, state not stated
YYF-stimulated cleavage activity relative to wild type (WT background, with YYF, % of wild-type activity): ~ 10%

B3: D221A/H198P (protein, UniProt P0AEE3 1-355, looked up, variant D221A H198P)
Serine endoprotease DegS: MFVKLLRSVAIGLIVGAILLVAMPSLRSLNPLSTPQFDSTDETPASYNLAVRRAAPAVVNVYNRGLNTNSHNQLEIRTLGSGVIMDQRGYIITNKHVINDADQIIVALQDGRVFEALLVGSDSLTDLAVLKINATGGLPTIPINARRVPHIGDVVLAIGNPYNLGQTITQGIISATGRIGLNPTGRQNFLQTDASINPGNSGGALVNSLGELMGINTLSFAKSNDGETPEGIGFAIPFQLATKIMDKLIRDGRVIRGYIGIGGREIAPLHAQGGGIDQLQGIVVNEVSPDGPAANAGIQVNDLIISVDNKPAISALETMDQVAEIRPGSVIPVVVMRDDKQLTLQVTIQEYPATN
YYF-stimulated cleavage activity relative to H198P parental enzyme (H198P background, with YYF, % of H198P parent): ≥ 65%

B4: H198P/E230A (protein, UniProt P0AEE3 1-355, looked up, variant H198P E230A)
Serine endoprotease DegS: MFVKLLRSVAIGLIVGAILLVAMPSLRSLNPLSTPQFDSTDETPASYNLAVRRAAPAVVNVYNRGLNTNSHNQLEIRTLGSGVIMDQRGYIITNKHVINDADQIIVALQDGRVFEALLVGSDSLTDLAVLKINATGGLPTIPINARRVPHIGDVVLAIGNPYNLGQTITQGIISATGRIGLNPTGRQNFLQTDASINPGNSGGALVNSLGELMGINTLSFDKSNDGETPAGIGFAIPFQLATKIMDKLIRDGRVIRGYIGIGGREIAPLHAQGGGIDQLQGIVVNEVSPDGPAANAGIQVNDLIISVDNKPAISALETMDQVAEIRPGSVIPVVVMRDDKQLTLQVTIQEYPATN
YYF-stimulated cleavage activity, in words [1]: activity within error of H198P

B5: H198P/P229A (protein, UniProt P0AEE3 1-355, looked up, variant H198P P229A)
Serine endoprotease DegS: MFVKLLRSVAIGLIVGAILLVAMPSLRSLNPLSTPQFDSTDETPASYNLAVRRAAPAVVNVYNRGLNTNSHNQLEIRTLGSGVIMDQRGYIITNKHVINDADQIIVALQDGRVFEALLVGSDSLTDLAVLKINATGGLPTIPINARRVPHIGDVVLAIGNPYNLGQTITQGIISATGRIGLNPTGRQNFLQTDASINPGNSGGALVNSLGELMGINTLSFDKSNDGETAEGIGFAIPFQLATKIMDKLIRDGRVIRGYIGIGGREIAPLHAQGGGIDQLQGIVVNEVSPDGPAANAGIQVNDLIISVDNKPAISALETMDQVAEIRPGSVIPVVVMRDDKQLTLQVTIQEYPATN
YYF-stimulated cleavage activity, in words [1]: more active than H198P
